Assay results reported in patent publication US20100280227A1 (Genentech, published 2010).
Changes are numbered by the printed parent chain. Names may count otherwise. “And” between values parts separate entries of the source, which are not always exact repeats. Identical values can stand only once. Like-named read-outs stand apart in the source and are kept apart here.

Legend:
[1] = biological target: T1, human BR3 extracellular domain (human, UniProt Q96RJ3 1-61); experiment: BIAcore, Fab over immobilised target
T1 construct: biotinylated where used as tracer; also called hBR3-ECD; BR3-ECD

[2] = biological target: T2, variant human BR3-Fc fusion; experiment: BIAcore, Fab over immobilised target
T2 construct: produced in CHO cells; also called vBR3-Fc; vhBR3-Fc

[3] = biological target: T2, variant human BR3-Fc fusion; experiment: SPR, vBR3-Fc on chip;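 further: Anti-BR3 antibodies passed over chip-bound BR3-Fc in PBS with 0.05% polysorbate 20, on and off rates fitted together globally to a 1:1 binding model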
[4] = biological target: T1, human BR3 extracellular domain; experiment: SPR with Fab
[5] = biological target: T1, human BR3 extracellular domain; experiment: SPR, BR3 ECD on chip;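 further: Anti-BR3 antibodies passed over the chip at high flow in PBS with 0.05% polysorbate 20, on and off rates fitted together globally to a 1:1 binding model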
[6] = biological target: T3, human FcγRIIb extracellular domain, His-tagged GST fusion (human, UniProt P31994 43-217); experiment: ELISA, captured FcgR-GST; A450 ratio to 9.1RF
T3 construct: extracellular domain; also called hFcgRIIb; Human IIb
T3 sequence (looked up): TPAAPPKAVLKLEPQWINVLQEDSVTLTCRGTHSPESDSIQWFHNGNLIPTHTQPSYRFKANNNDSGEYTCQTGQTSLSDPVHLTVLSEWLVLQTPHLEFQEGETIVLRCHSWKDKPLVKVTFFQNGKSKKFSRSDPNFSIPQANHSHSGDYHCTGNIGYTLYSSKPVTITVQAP

[7] = biological target: T4, human FcγRI extracellular domain, His-tagged GST fusion (human, UniProt P12314 16-292); experiment: ELISA, captured FcgR-GST; A450 ratio to 9.1RF
T4 construct: extracellular domain; also called hFcgRI; Human I

[8] = biological target: T5, human FcγRIIa extracellular domain, His-tagged GST fusion (human, UniProt P12318 34-217); experiment: ELISA, captured FcgR-GST; A450 ratio to 9.1RF
T5 construct: extracellular domain; also called hFcgRIIa; Human IIa
T5 sequence (looked up): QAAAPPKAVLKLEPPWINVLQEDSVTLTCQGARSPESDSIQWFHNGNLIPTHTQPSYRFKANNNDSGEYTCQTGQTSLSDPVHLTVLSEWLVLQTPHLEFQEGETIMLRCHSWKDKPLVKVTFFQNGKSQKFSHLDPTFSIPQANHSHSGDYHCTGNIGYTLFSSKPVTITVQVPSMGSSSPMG

human FcRn [9] = biological target: T6, human FcRn (human, UniProt P55899 24-297; P61769 21-119, limits assumed); experiment: SPR, FcRn on chip, kinetic, pH 6.0 (KDa)
T6 construct: construct not described; also called huFcRn

cynomolgus FcRn [10] = biological target: T7, cynomolgus FcRn (cynomolgus monkey, UniProt Q8SPV9 24-297; Q8SPW0 21-119, limits assumed); experiment: SPR, FcRn on chip, kinetic, pH 6.0 (KDa)
T7 construct: construct not described; also called cynoFcRn; cyno FcRn

human FcRn [11] = biological target: T6, human FcRn; experiment: SPR, FcRn on chip, equilibrium, pH 6.0 (KDb)
cynomolgus FcRn [12] = biological target: T7, cynomolgus FcRn; experiment: SPR, FcRn on chip, equilibrium, pH 6.0 (KDb)
human FcRn [13] = biological target: T6, human FcRn; experiment: SPR, FcRn on chip, kinetic, pH 6
cynomolgus FcRn [14] = biological target: T7, cynomolgus FcRn; experiment: SPR, FcRn on chip, kinetic, pH 6
[15] = biological target: T5, human FcγRIIa extracellular domain, …; experiment: ELISA, receptor-His-GST captured by anti-GST, IgG complexed with anti-kappa F(ab')2
[16] = biological target: T4, human FcγRI extracellular domain, …; experiment: ELISA, receptor-His-GST captured by anti-GST, uncomplexed IgG
[17] = biological target: T1, human BR3 extracellular domain; experiment: F(ab)'2 phage solution binding competition ELISA
mouse BR3-Fc [18] = biological target: T8, mouse BR3-Fc (mouse); experiment: F(ab)'2 phage solution binding competition ELISA
T8 construct: (BR3 ECD fused to a murine Fc); also called mBR3-Fc; murine BR3-Fc
T8 chain: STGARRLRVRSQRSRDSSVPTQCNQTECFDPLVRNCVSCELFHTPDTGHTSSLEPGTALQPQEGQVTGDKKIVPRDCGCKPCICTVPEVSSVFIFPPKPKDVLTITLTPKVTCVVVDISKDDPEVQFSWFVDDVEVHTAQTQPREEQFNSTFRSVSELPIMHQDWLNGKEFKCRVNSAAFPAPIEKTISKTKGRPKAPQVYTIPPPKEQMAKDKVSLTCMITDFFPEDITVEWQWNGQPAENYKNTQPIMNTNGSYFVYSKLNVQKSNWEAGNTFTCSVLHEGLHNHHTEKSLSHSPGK

[19] = biological target: T9, mouse BR3 extracellular domain (mouse, UniProt Q9D8D0 1-64); experiment: F(ab)'2 phage solution binding competition ELISA
T9 construct: also called mBR3-ECD; mBR-ECD
T9 sequence: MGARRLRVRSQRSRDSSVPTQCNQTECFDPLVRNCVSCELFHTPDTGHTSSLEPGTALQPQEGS

mouse BR3-Fc [20] = biological target: T8, mouse BR3-Fc; experiment: BAFF blocking ELISA: F(ab)'2 phage added to coated mBR3-Fc after mBAFF-Flag

B1: Hu11G9-46 Fab (Fab, V domains shown)
VH: EVQLVESGGGLVQPGGSLRLSCAASGDSITSGYWNWVRQAPGKGLEWVGYISYSGSTYYNPSLKSRFTISRDTSKNTFYLQMNSLRAEDTAVYYCAGLNDLYLYFDVWGQGTLVTVSS
VL: DIQMTQSPSSLSASVGDRVTITCRSSQSLVHSNGNTYLHWYQQKPGKAPKLLIYKVSNRFSGVPSRFSGSGSGTDFTLTISSLQPEDFATYYCSQSTHVPPFTFGQGTKVEIKR
notes: Fab
[1]
  Kd: 1.5 nM
[2]
  Kd: 5.4 nM
[3]
  Kd: 1.38 nM and 1.62 nM
  koff: 0.000902 s⁻¹ and 0.000808 s⁻¹
  kon: 660000 M⁻¹ s⁻¹ and 500000 M⁻¹ s⁻¹
[4]
  fold improved affinity relative to the chimeric 11G9 Fab: > 10 fold
[5]
  Kd: 0.46 nM and 0.652 nM
  koff: 0.000808 s⁻¹ and 0.000867 s⁻¹
  kon: 1.76e+06 M⁻¹ s⁻¹ and 1.33e+06 M⁻¹ s⁻¹

B2: Hu9.1-70 Fab (Fab, V domains shown)
VH: EVQLVESGGGLVQPGGSLRLSCAASDSPRSGYYISWVRQAPGKGLEWVGFIRDKANGYTTEYNPSVKGRFTISADTSKNTAYLQMNSLRAEDTAVYYCAQVRRALDYWGQGTLVTVSS
VL: DIQMTQSPSSLSASVGDRVTITCKSSQSLLYSSNQNNYLAWYQQKPGKAPKLLIYWASIRDSGVPSRFSGSGSGTDFTLTISSLQPEDFATYYCQQYYTYPYTFGQGTKVEIKR
notes: Fab
[1]
  Kd: 0.15 nM
[2]
  Kd: 0.78 nM
[3]; 220 RU BR3-Fc immobilized
  Kd: 0.95 nM
  koff: 0.00068 s⁻¹
  kon: 720000 M⁻¹ s⁻¹
[3]; 380 RU BR3-Fc immobilized
  Kd: 0.61 nM
  koff: 0.000392 s⁻¹
  kon: 640000 M⁻¹ s⁻¹
[4]
  fold higher affinity than the chimeric 9.1 Fab: ~2 fold
[5]
  Kd: 0.13 nM and 0.17 nM
  koff: 0.000137 s⁻¹ and 0.000163 s⁻¹
  kon: 1.08e+06 M⁻¹ s⁻¹ and 950000 M⁻¹ s⁻¹

B3: Hu9.1-RF Fab (Fab, V domains shown)
VH: B2 VH with D26G, S27F, P28T, R29V, S30T, G31A, I34M, A74R, A81F
VL: B2 VL with I59T, D61E
[3]
  Kd: 6.4 nM
  koff: 0.00186 s⁻¹
  kon: 290000 M⁻¹ s⁻¹
[4]
  fold higher affinity than the chimeric 9.1 Fab: ~2 fold
[5]
  Kd: 0.14 nM
  koff: 0.000294 s⁻¹
  kon: 2.02e+06 M⁻¹ s⁻¹

B4: 9.1RF N434A IgG (antibody)
light: DIQMTQSPSSLSASVGDRVTITCKSSQSLLYSSNQNNYLAWYQQKPGKAPKLLIYWASTRESGVPSRFSGSGSGTDFTLTISSLQPEDFATYYCQQYYTYPYTFGQGTKVEIKRTVAAPSVFIFPPSDEQLKSGTASVVCLLNNFYPREAKVQWKVDNALQSGNSQESVTEQDSKDSTYSLSSTLTLSKADYEKHKVYACEVTHQGLSSPVTKSFNRGEC
heavy: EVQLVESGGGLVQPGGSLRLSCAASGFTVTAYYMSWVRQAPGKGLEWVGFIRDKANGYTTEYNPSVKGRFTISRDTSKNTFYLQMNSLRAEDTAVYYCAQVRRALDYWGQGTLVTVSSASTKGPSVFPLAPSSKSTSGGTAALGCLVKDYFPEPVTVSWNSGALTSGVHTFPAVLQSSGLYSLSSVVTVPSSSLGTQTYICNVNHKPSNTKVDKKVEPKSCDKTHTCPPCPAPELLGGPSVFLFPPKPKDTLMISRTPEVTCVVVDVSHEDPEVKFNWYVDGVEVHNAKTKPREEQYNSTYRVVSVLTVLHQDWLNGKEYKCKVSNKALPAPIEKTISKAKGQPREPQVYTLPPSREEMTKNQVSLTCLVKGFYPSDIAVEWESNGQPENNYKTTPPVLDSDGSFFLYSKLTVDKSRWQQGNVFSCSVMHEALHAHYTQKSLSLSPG
notes: produced in CHO cells; copies: 2 + 2
[6]
  binding relative to 9.1RF: 0.45 ratio
[7]
  binding relative to 9.1RF: 0.97 ratio
[8]
  binding relative to 9.1RF: 0.66 ratio
Human FcRn [9]
  Kd: 52.8 nM
Cynomolgus FcRn [10]
  Kd: 56.5 nM
Human FcRn [11]
  Kd: 66.6 nM
Cynomolgus FcRn [12]
  Kd: 62.7 nM
Human FcRn [13]
  koff: 0.0467 s⁻¹
  kon: 884000 M⁻¹ s⁻¹
Cynomolgus FcRn [14]
  koff: 0.0962 s⁻¹
  kon: 1.7e+06 M⁻¹ s⁻¹
[15]
  EC50 (read off the curve): ~2 µg/mL
[16]
  EC50 (read off the curve): ~0.006 µg/mL

B5: 9.1RF N434W IgG (antibody)
light: B4 light
heavy: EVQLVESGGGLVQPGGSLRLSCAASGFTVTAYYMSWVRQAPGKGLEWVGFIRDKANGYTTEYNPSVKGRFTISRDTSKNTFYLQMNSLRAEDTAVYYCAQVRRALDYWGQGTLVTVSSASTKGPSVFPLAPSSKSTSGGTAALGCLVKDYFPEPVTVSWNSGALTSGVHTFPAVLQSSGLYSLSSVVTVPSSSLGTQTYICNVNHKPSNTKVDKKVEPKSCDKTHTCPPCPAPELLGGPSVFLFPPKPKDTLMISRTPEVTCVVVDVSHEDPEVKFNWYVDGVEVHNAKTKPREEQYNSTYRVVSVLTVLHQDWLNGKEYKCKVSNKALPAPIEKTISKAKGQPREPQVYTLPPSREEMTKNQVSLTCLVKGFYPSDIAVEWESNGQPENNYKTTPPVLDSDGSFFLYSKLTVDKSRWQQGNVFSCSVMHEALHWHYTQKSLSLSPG
notes: as for B4
[6]
  binding relative to 9.1RF: 0.4 ratio
[7]
  binding relative to 9.1RF: 1 ratio
[8]
  binding relative to 9.1RF: 0.64 ratio
Human FcRn [9]
  Kd: 2.37 nM
Cynomolgus FcRn [10]
  Kd: 3.03 nM
Human FcRn [11]
  Kd: 5.8 nM
Cynomolgus FcRn [12]
  Kd: 5.1 nM
Human FcRn [13]
  koff: 0.0102 s⁻¹
  kon: 4.31e+06 M⁻¹ s⁻¹
Cynomolgus FcRn [14]
  koff: 0.0144 s⁻¹
  kon: 4.74e+06 M⁻¹ s⁻¹
[15]
  EC50 (read off the curve): ~2 µg/mL
[16]
  EC50 (read off the curve): ~0.006 µg/mL

B6: 89 (Fab, V domains shown)
VH: EVQLVESGGGLVQPGGSLRLSCAASGFTITGYGIHWVRQAPGKGLEWVAGITPANGYTDYADSVKGRFTISADTSKNTAYLQMNSLRAEDTAVYYCAKSFPFHYNFDYWGQGTLVTVSS
VL: DIQMTQSPSSLSASVGDRVTITCRASQDVSTAVAWYQQKPGKAPKLLIYSASFLYSGVPSRFSGSGSGTDFTLTISSLQPEDFATYYCQQSYTTPPTFGQGTKVEIKR
notes: also called V89; clone 89
[17]
  IC50: 5000 nM
Mouse BR3-Fc [18]
  IC50: 37 nM
[19]
  binding result: no binding
Mouse BR3-Fc [20]
  Blocking to % (phage bound in the presence of BAFF): 90%

B7: 96 (Fab, V domains shown)
VH: EVQLVESGGGLVQPGGSLRLSCAASGFTINSSAIHWVRQAPGKGLEWVGYITPASGYTDYADSVKGRFTISADTSKNTAYLQMNSLRAEDTAVYYCAKGFHWYRGFFDYWGQGTLVTVSS
VL: B6 VL
notes: also called V96; clone 96
[17]
  binding result: binds
Mouse BR3-Fc [18]
  IC50: 200 nM
[19]
  binding result: no binding
Mouse BR3-Fc [20]
  Blocking to % (phage bound in the presence of BAFF): 65%
